Experimental data published in patent US20240299459A1.
One block for each substance: values may come before it.

Key:
[1] = target: platelet-derived growth factor receptor β on human synovium-derived stem cells (human) (UniProt P09619); assay: flow cytometry staining of human synovium-derived stem cells, first lot listed (ST1414)
[2] = target: platelet-derived growth factor receptor β on human synovium-derived stem cells (human) (UniProt P09619); assay: flow cytometry staining of human synovium-derived stem cells, third lot listed (ST1434)
[3] = target: platelet-derived growth factor receptor β on rat synovium-derived mesenchymal stem cells (rat) (UniProt Q05030); assay: flow cytometry staining of rat synovium-derived MSC with FITC anti-goat secondary, TrypLE detachment 60 minutes
Chain of UniProt Q05030 (Q05030 32-1097): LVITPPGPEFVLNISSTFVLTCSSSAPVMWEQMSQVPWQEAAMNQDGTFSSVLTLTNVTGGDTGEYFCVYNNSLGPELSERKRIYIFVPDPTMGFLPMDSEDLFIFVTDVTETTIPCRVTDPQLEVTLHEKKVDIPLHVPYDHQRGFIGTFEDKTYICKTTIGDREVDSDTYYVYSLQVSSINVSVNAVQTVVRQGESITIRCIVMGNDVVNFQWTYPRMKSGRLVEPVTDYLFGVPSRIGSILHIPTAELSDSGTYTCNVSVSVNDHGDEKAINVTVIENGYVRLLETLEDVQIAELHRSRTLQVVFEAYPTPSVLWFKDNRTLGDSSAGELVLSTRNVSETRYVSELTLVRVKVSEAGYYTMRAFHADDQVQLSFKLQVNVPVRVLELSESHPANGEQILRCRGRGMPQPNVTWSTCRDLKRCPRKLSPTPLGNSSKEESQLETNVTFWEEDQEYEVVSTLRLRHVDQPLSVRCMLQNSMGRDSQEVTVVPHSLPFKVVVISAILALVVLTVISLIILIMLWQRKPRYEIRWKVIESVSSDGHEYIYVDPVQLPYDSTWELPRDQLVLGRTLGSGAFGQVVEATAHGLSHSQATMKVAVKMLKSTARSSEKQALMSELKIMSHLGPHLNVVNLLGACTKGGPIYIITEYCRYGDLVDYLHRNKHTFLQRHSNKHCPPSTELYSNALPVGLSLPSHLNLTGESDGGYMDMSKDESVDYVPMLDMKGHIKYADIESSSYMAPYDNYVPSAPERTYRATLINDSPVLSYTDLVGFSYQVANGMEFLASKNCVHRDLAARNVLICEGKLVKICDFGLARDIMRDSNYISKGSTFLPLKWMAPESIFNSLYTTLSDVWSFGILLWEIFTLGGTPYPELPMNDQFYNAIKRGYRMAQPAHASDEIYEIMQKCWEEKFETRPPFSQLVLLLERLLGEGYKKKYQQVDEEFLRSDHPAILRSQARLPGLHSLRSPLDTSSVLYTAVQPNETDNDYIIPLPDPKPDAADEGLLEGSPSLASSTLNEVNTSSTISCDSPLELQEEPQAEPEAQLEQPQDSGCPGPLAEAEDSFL

[4] = target: platelet-derived growth factor receptor β on rat synovium-derived mesenchymal stem cells (rat) (UniProt Q05030); assay: flow cytometry staining of rat synovium-derived MSC with FITC anti-goat secondary, TrypLE detachment 30 minutes
[5] = target: platelet-derived growth factor receptor β on rat synovium-derived mesenchymal stem cells (rat) (UniProt Q05030); assay: cell-based or functional assay
[6] = target: platelet-derived growth factor receptor β on human synovium-derived stem cells (human) (UniProt P09619); assay: flow cytometry staining of human synovium-derived stem cells, second lot listed (ST1420)
[7] = target: platelet-derived growth factor receptor β on rat synovium-derived mesenchymal stem cells (rat) (UniProt Q05030); assay: flow cytometry staining of rat synovium-derived MSC with FITC anti-goat secondary, TrypLE detachment 120 minutes
[8] = target: platelet-derived growth factor receptor β on human synovium-derived stem cells (human) (UniProt P09619); assay: flow cytometry staining of human synovium-derived stem cells, fourth lot listed (ST1462)
[9] = target: platelet-derived growth factor receptor β on rat synovium-derived mesenchymal stem cells (rat) (UniProt Q05030); assay: flow cytometry staining of rat synovium-derived MSC with FITC anti-goat secondary, TrypLE detachment 5 minutes
[10] = target: integrin β1 on human synovium-derived stem cells (human) (UniProt P05556); assay: flow cytometry staining of human synovium-derived stem cells, first lot listed (ST1414)
Chain of UniProt P05556 (P05556 21-798): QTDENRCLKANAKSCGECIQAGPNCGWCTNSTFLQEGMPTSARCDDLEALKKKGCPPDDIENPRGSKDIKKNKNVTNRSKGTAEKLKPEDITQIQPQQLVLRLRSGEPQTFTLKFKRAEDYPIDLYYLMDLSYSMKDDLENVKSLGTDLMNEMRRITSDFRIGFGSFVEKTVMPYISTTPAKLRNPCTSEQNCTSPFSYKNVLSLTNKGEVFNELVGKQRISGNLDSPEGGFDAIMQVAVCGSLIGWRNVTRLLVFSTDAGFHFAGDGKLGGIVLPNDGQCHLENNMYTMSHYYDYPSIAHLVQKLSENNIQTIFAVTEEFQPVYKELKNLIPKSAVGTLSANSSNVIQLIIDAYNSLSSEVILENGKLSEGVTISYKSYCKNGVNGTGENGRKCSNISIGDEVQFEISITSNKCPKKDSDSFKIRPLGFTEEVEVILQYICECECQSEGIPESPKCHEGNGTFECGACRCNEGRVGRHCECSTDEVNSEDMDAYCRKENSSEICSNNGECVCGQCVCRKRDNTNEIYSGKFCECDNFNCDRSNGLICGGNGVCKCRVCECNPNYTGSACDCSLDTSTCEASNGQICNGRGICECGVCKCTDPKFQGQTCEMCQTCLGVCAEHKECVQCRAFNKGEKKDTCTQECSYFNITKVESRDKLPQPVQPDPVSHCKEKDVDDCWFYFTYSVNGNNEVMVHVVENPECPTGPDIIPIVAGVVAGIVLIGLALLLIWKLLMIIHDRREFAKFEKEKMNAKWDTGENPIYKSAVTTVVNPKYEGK

[11] = target: integrin β1 on human synovium-derived stem cells (human) (UniProt P05556); assay: flow cytometry staining of human synovium-derived stem cells, third lot listed (ST1434)
[12] = target: integrin β1 on human synovium-derived stem cells (human) (UniProt P05556); assay: flow cytometry staining of human synovium-derived stem cells, second lot listed (ST1420)
[13] = target: integrin β1 on human synovium-derived stem cells (human) (UniProt P05556); assay: flow cytometry staining of human synovium-derived stem cells, fourth lot listed (ST1462)
[14] = target: integrin β1 on rat synovium-derived mesenchymal stem cells (rat) (UniProt P49134); assay: flow cytometry staining of rat synovium-derived MSC, TrypLE detachment 30 minutes
Chain of UniProt P49134 (P49134 21-798): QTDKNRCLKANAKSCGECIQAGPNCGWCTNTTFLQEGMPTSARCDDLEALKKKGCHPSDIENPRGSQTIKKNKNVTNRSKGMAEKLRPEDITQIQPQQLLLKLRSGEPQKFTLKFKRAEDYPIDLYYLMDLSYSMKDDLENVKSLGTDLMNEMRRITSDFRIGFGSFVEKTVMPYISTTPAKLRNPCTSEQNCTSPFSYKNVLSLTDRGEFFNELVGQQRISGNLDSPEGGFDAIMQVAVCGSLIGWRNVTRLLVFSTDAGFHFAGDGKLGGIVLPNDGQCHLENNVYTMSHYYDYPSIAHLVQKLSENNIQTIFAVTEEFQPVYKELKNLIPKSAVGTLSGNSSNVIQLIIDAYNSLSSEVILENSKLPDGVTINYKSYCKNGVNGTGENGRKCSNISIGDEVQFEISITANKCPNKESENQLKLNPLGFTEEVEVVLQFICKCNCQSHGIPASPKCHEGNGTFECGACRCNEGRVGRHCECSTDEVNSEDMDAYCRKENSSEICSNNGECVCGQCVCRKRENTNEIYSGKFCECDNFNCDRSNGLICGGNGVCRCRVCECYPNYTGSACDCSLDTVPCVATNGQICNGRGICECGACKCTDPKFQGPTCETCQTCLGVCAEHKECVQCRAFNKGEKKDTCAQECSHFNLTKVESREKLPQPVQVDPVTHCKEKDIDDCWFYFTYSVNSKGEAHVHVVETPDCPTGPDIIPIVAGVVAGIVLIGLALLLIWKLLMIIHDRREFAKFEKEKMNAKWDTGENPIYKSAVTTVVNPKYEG

[15] = target: integrin β1 on rat synovium-derived mesenchymal stem cells (rat) (UniProt P49134); assay: flow cytometry staining of rat synovium-derived MSC cultured 8 days, TrypLE detachment 120 minutes
[16] = target: integrin β1 on rat synovium-derived mesenchymal stem cells (rat) (UniProt P49134); assay: flow cytometry staining of rat synovium-derived MSC cultured 28 days, TrypLE detachment 120 minutes
[17] = target: integrin β1 on rat synovium-derived mesenchymal stem cells (rat) (UniProt P49134); assay: flow cytometry staining of rat synovium-derived MSC, TrypLE detachment 5 minutes
[18] = target: integrin β1 on rat synovium-derived mesenchymal stem cells (rat) (UniProt P49134); assay: flow cytometry staining of rat synovium-derived MSC cultured 21 days, TrypLE detachment 120 minutes
[19] = target: integrin β1 on rat synovium-derived mesenchymal stem cells (rat) (UniProt P49134); assay: flow cytometry staining of rat synovium-derived MSC, TrypLE detachment 60 minutes
[20] = target: integrin β1 on rat synovium-derived mesenchymal stem cells (rat) (UniProt P49134); assay: flow cytometry staining of rat synovium-derived MSC, TrypLE detachment 120 minutes

Chain of UniProt P09619 (P09619 33-1106): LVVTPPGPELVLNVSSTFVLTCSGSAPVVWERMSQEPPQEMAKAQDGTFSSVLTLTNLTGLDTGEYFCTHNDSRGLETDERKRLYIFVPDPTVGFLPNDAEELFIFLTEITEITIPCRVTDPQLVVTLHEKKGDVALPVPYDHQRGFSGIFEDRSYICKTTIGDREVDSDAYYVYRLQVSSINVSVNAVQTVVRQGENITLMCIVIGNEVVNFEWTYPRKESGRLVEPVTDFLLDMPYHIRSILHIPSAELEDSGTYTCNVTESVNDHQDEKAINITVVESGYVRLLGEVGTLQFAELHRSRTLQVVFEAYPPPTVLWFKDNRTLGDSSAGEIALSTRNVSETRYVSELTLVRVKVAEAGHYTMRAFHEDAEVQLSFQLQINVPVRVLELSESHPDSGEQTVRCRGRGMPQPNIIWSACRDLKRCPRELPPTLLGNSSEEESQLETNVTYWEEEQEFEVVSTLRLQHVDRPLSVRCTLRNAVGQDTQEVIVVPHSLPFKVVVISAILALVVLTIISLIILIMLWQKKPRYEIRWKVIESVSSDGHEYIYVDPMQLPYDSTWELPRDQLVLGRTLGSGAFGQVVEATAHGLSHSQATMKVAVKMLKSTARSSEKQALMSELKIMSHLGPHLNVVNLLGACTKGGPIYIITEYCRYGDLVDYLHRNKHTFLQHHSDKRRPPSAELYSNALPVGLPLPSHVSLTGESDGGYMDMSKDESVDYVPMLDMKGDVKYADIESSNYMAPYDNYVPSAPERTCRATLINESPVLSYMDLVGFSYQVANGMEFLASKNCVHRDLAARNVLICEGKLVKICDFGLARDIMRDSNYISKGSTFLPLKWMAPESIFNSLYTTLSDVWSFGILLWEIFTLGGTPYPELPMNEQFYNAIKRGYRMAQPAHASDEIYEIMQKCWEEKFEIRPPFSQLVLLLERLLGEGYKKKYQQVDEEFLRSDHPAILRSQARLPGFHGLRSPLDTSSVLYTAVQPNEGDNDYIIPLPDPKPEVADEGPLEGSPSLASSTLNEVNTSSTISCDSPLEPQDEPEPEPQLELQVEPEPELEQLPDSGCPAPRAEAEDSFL

- surface antigen positive rate [1]: 92.2%
- surface antigen positive rate [2]: 95.2%
- Expression rate (percent positive cells) [3]: 63.3%
- Expression rate (percent positive cells) [4]: 76.9%
- ATP concentration (cell proliferation with rat PDGF-BB 4 ng/mL, Cell Titer Glo, 6th day of culture), 10 µg/mL PDGFRb-rSMSC [5]: 0.62 µmol/L
- ATP concentration (cell proliferation with rat PDGF-BB 4 ng/mL, Cell Titer Glo, 6th day of culture), 20 µg/mL PDGFRb-rSMSC [5]: 0.65 µmol/L
- ATP concentration (cell proliferation with rat PDGF-BB 4 ng/mL, Cell Titer Glo, 6th day of culture), 40 µg/mL PDGFRb-rSMSC [5]: 0.24 µmol/L
- ATP concentration (cell proliferation, Cell Titer Glo, 6th day of culture), 40 µg/mL PDGFRb-rSMSC [5]: 3.78 µmol/L
- ATP concentration (cell proliferation, Cell Titer Glo, 6th day of culture), 120 µg/mL PDGFRb-rSMSC [5]: 4.12 µmol/L
- surface antigen positive rate [6]: 90.7%
- Expression rate (percent positive cells) [7]: 32.8%
- surface antigen positive rate [8]: 85.9%
- Expression rate (percent positive cells) [9]: 91.6%
Substance: Anti-PDGF Receptor β Human Goat-Poly (R & D Systems Cat. No. AF385) (antibody)

- surface antigen positive rate [10]: 99.4%
- surface antigen positive rate [11]: 99.6%
- surface antigen positive rate [12]: 99.6%
- surface antigen positive rate [13]: 99.5%
Substance: APC Mouse Anti-Human CD29, Cat: 559883 (antibody)

- Expression rate (percent positive cells) [14]: 99.7%
- Expression rate (percent positive cells) [15]: 97.8%
- Expression rate (percent positive cells) [16]: 56.1%
- Expression rate (percent positive cells) [17]: 98.7%
- Expression rate (percent positive cells) [18]: 62.1%
- Expression rate (percent positive cells) [19]: 96.1%
- Expression rate (percent positive cells) [20]: 97.8%
Substance: PE anti-mouse/rat integrin β1 Antibody (Biolegend Cat. No. 102207)
